The target of the test is T1, recombinant ECD of EGFR (UniProt P00533 25-645).
T1 construct: Epidermal growth factor receptor, recombinant extracellular domain immobilised for SPR; Source, limits and tags may be told in the Supplemental Methods
Kind of test: SPR; BIAcore S200, room temperature; recombinant ECD of EGFR immobilised on a CM5 chip by amine coupling; purified rCGA injected at 30 μL/min for 60 seconds, dissociation 100 seconds; 1:1 Langmuir binding model. The note with it: both partners purified. (Surface plasmon resonance follows binding to a sensor surface in real time, without labels.)

As a reminder, the Kd is the concentration at which binding is half-saturated.

B1: recombinant human CGA (glycoprotein hormone α polypeptide), 6×His tag removed (natural protein)
chain: not shown
notes: Glycoprotein hormones alpha chain (CGA), human; CGA ORF in a modified pHL-sec vector, secreted protein; engineered enterokinase site at the C-terminus before the 6×His tag; Made in mammalian cells; Residues of the enterokinase site may be left at the C-terminus after digestion; also called rCGA; α-subunit of glycoprotein hormones; not shown: His6, C-terminal, cleaved
For B1, the Kd turned out to be 11.8 µM.

(Values after paper PMC8920335, “A CGA/EGFR/GATA2 positive feedback circuit confers chemoresistance in gastric cancer” (The Journal of Clinical Investigation, 2022).)
